# Literature values in publication PMC7314768.
# Assays:
# Cys145 = Cys145 (UniProt position 3385, FLNGSCGSVGF)
# His41 = His41 (UniProt position 3281, VYCPRHVICTA)
substance,measurement,setting,value
"3C-like main protease (3CL Mpro, 3CLpro, nsp5) of SARS coronavirus (Severe acute respiratory syndrome coronavirus (SARS-CoV))",pKa,Cys145,8.0 ± 0.3
same,pKa,His41,6.3 ± 0.1
